According to patent US20120004133A1:

Biological target: Ang II type 1 receptor on rat vascular smooth muscle cells (rat) (UniProt P25095)
Test: cell-based or functional assay

Sequence of UniProt P25095 (P25095 whole entry): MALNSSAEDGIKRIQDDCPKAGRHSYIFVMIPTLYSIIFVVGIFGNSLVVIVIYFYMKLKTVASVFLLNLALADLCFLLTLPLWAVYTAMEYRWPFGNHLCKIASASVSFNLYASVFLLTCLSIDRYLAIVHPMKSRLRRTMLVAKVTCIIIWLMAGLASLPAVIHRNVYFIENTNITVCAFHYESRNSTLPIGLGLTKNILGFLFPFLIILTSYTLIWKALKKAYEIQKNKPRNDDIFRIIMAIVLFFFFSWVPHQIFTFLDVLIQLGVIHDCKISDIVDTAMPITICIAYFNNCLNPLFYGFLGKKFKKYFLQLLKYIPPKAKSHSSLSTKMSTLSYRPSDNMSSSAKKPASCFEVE

Substance “[Sar1, Gly8]-Ang II acetate hydrate (peptide)” has an MFG-E8 protein level in old VSMC (Western blot) of 40%.
